Laboratory results published in the RNAGym collection of RNA variant scans (doi:10.7554/elife.80360).

B1: Hairpin Ribozyme (parent)
chain: GUCCUCUUUCACGUGCGCGUGAAAGAGAGAAGUGAACCAGAGAAACACACGUUGUGGUAUAUUACCUGGUA

Variants of: B1
Test: self-cleavage, relative activity (ratio to wild type); higher = more cleavage; co-transcriptional

In order of falling self-cleavage:
1. G34C A71C  1.76
2. G34C G51A  1.61
3. G34A A71C  1.6
4. G34U C37U  1.59
5. G34U U58A  1.5
6. G34U A35G  1.47
7. G34C C50G  1.45
8. G34C U70C  1.42
9. G34C C50U  1.36
10. A36G U70C  1.35
11. G34A A41U  1.23
12. G34U A35C  1.2
13. G34A A36G  1.19
14. G34C U55C  1.19
15. G34C G54U  1.19
16. G34U A64G  1.17
17. G34A U53G  1.17
18. A35G U58C  1.11
19. A36G U70A  1.11
20. A36G U53C  1.08
21. A35C C65A  1.08
22. A35U A71U  0.978
23. G34U U67C  0.976
24. A36C A71C  0.975
25. A35G U52G  0.97
26. A35U A71G  0.962
27. A35U A36G  0.901
28. G34C A39C  0.9
29. G34C C37A  0.898
30. G34U G57A  0.887
31. G34U G42A  0.883
32. G34U U67A  0.876
33. A35G C65A  0.867
34. G34A A36U  0.832
35. A36U A71G  0.829
36. G34C A64G  0.792
37. A35U U53A  0.785
38. G34C C37G  0.781
39. G34C A61C  0.733
40. A35C G51C  0.725
41. A35G G51C  0.689
42. A36C A71U  0.654
43. A36C U58G  0.595
44. G34C G69C  0.564
45. A35C G54U  0.56
46. A35C C66U  0.558
47. G34U G57C  0.552
48. A36U A71U  0.524
49. G34C U67G  0.517
50. A36G A39U  0.517
51. A36G A39G  0.513
52. G34A U55C  0.487
53. G34C G68C  0.484
54. A35C G54A  0.483
55. G34A C65G  0.477
56. G34A C66A  0.469
57. A36C G54A  0.467
58. G34A U67C  0.463
59. A36U G51C  0.446
60. A35G G54C  0.444
61. A35G U60G  0.443
62. G34C A64U  0.442
63. A35C C50U  0.438
64. G34U A64C  0.376
65. A35C C50G  0.37
66. A35U G69C  0.368
67. A35G A39G  0.348
68. G34A U67G  0.346
69. A36U A39G  0.344
70. A36G C50A  0.34
71. A36U C66G  0.338
72. A36C G54U  0.33
73. A36C G54C  0.327
74. A35U G57U  0.311
75. A36C A64U  0.309
76. A36G G68A  0.306
77. A36G C37A  0.297
78. G34C U63A  0.293
79. A36G C66G  0.288
80. A36U A44U  0.285
81. A36U A49G  0.281
82. A35U U55G  0.281
83. A35U U55C  0.274
84. A35C U55G  0.27
85. A36C C66A  0.268
86. A36G C65U  0.267
87. A35U A36C  0.264
88. G34C U63G  0.262
89. A35U A47C  0.258
90. G34C C46A  0.238
91. A36G G68U  0.237
92. A36C A45C  0.236
93. A35U C38G  0.235
94. A35G U63C  0.233
95. A35G U63A  0.232
96. A35C G68U  0.226
97. A35G U63G  0.221
98. A36U U62G  0.216
99. A36U A61U  0.213
100. U33G U53G  0.211
101. A36U C37U  0.21
102. A36G A61U  0.205
103. U33G U53C  0.204
104. G34A A45C  0.202
105. G34U A44C  0.202
106. U33G U63G  0.198
107. A35U G54A  0.197
108. G34C G57C  0.195
109. G34A C48U  0.191
110. A36G U67G  0.19
111. A36G A45C  0.189
112. A36U C37A  0.184
113. A35U C50U  0.18
114. A36G U62A  0.179
115. A36G C46G  0.178
116. A35C U55A  0.177
117. A36C U67G  0.175
118. A35G A64C  0.174
119. A36C U67A  0.174
120. U33G U52A  0.17
121. A36U C66U  0.166
122. A36C G40A  0.162
123. A35G C38A  0.162
124. A35U C46A  0.16
125. A36U A61G  0.156
126. A36U U62A  0.154
127. A36G A61G  0.154
128. A35U C66A  0.154
129. A35C G40U  0.149
130. A36U A47C  0.146
131. U33G U52C  0.145
132. A35U C46U  0.143
133. G34U U62G  0.139
134. A35G U62G  0.139
135. A36G C65G  0.138
136. G34A C46U  0.135
137. A35C C48G  0.131
138. U33G U62A  0.126
139. A35C A59G  0.124
140. U33G G69U  0.123
141. A35G A43C  0.118
142. A36U G68U  0.118
143. U33G U55C  0.117
144. A36C G42U  0.116
145. A35U G57C  0.116
146. A36C A61C  0.116
147. A35C A59U  0.105
148. A36C U67C  0.102
149. U33G U70C  0.101
150. G34U A43C  0.0997
151. U33G U62G  0.0966
152. U33G G68U  0.0922
153. A35C A43C  0.0885
154. A35U U62C  0.0853
155. A35U G54C  0.0851
156. A35U A44U  0.0832
157. G34U A43U  0.0758
158. A35C G57A  0.0715
159. A36G A44U  0.0711
160. A36U C48U  0.0683
161. A36C G42A  0.0682
162. U33G G69A  0.0603
163. A36C C48U  0.0598
164. G34C C46G  0.0437
165. A36G A43G  0.0267
166. A36C C46A  0.026
167. A35U U62G  0
